The values that follow come from article PMC10501626 (PLOS Pathogens, 2023).

This assay has as its target T1, LGP2 regulatory domain (LGP2 RD, residues 537–678), wild type (human, UniProt Q96C10 537-678, biotinylated (biotin added at 3:1 molar ratio) for biolayer interferometry).
T1 construct: also called LGP2 RD WT; WT
T1 sequence (looked up): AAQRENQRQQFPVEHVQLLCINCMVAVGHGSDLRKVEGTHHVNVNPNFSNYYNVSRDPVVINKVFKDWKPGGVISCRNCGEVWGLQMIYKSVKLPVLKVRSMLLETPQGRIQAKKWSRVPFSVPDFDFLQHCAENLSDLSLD
The assay can be described thus: BLI. Particulars: both partners purified.

B1: TBEV NS5 protein, purified (natural protein)
chain: GGSEGDTLGDLWKRKLNGCTKEEFFAYRRTGILETERDKARELLKRGETNMGLAVSRGTAKLAWLEERGYATLKGEVVDLGCGRGGWSYYAASRPAVMSVKACAIAGKGHETPKMVTSLGWNLIKFRAGMDVFSMQPHRADTIMCDIGESNPDAVVEGERTRKVILLMEQWKNRNPTATCVFKALAPYRPEVTEALHRFQLQWGGGLVRTPFSRNSTHEMYYSTAITGNIVNSVNIQSRKLLARFGDQRGPTRVPELDLGVGTRCVVLAEDKVKEKDVQERISALREQYGETWHMDREHPYRTWQYWAATACANRVGGALINGVVKLLSWPWNAREDVVRMAMTDTTAFGQQRVFKEKVDTKAQEPQPGTKVIMRAVNDWILERLARKSKPRMCSREEFIAKVKSNAALGAWSDEQNRWSSAKEAVEDPAFWQLVDEERERHLAGRCAHCVYNMMGKREKKLGEFGVAKGSRAIWYMWLGSRFLEFEALGFLNEDHWASRGSSGSGVEGISLNYLGWHLKGLSTLEGGLFYADDTAGWDTKVTNADLEDEEQLLRYMEGEHKQLAATIMQKAYHAKVVKVARPSRDGGCIMDVITRRDQRGSGQVVTYALNTLTNIKVQLIRMMEGEGVIEASDAHNPRLLRVERWLRDHGEERLGRMLVSGDDCVVRPVDDRFSGALYFLNDMAKTRKDIGEWDHSVGFSNWEEVPFCSHHFHELVMKDGRTLIVPCRDQDELVGRARVSPGCGRSVRETACLSKAYGQMWLLSYFHRRDLRTLGLAICSAVPVDWVPAGRTTWSIHASGAWMTTEDMLDVWNRVWILDNPFMHSKEKIAEWRDVPYLPKSHDMLCSSLVGRKERAEWAKNIWGAVEKVRKMIGQEKFKDYLSCMDRHDLHWESKLESSII
In the case of B1, the Kd (usually the equilibrium constant for the complex coming apart) came out at 1.2 ± 0.8 µM.
